Measurements: patent US20220017612A1 (TILOS THERAPEUTICS, published 2022)
Blank lines part the entries; values can stand above or below the binder they belong to.

How the values were obtained:
[1] = target: T1, human LAP-TGFβ1 overexpressed on cells (human, UniProt P01137 30-390); experiment: flow cytometry; black bar HT1080-huB1, grey bar HT1080
T1 construct: HT1080 or P3U1 cells overexpressing wild-type human LAP-TGFβ1; also called HT1080-huB1; HT1080-hβ1
Procedure: First, the ability of the humanized 20E6 candidates to bind to HT1080 cells overexpressing human TGFβ1 was tested by flow cytometry. HT1080 cells over-expressing human LAP-TGFβ1 were placed in a round-bottom 96-well plate at density of 40,000 cells/well. The cells were washed with FACS buffer (25 mM HEPES, 2 mM EDTA, 2% fetal bovine serum in Hank's Balanced Salt Solution). A volume (50 μL) of 1:200 diluted TruStain Human FcX (BioLegend) was added to each well, followed by 50 μL of 100 ng/μL of humanized 20E6 antibody construct. The antibody was allowed to bind for 20 minutes. The cells were washed twice with FACS buffer. The cells were labeled for 15 minutes with Alexa647-anti Human IgG (Jackson Immunoresearch), washed twice with FACS buffer, and analyzed by flow cytometry.

[2] = target: T2, fusion protein of a human IgG1 Fc domain and human LAP-TGFβ1 (human, UniProt P01137 30-390); experiment: BLI, 2:1 model, component 1
T2 construct: printed both as Fc-huB1 and LAP-TGFβ-Fc; also called Fc-huB1; Fc-human LAP
T2 sequence (P01137 30-390 limits assumed): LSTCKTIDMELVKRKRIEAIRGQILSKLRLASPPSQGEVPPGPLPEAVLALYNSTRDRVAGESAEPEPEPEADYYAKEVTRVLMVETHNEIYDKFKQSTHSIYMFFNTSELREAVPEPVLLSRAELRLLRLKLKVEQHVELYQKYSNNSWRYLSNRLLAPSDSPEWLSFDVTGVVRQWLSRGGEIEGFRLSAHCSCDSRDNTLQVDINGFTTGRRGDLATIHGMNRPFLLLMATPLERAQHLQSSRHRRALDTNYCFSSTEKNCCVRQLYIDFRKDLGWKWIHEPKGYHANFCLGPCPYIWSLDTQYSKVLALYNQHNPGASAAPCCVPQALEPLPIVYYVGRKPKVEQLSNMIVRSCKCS
Procedure: (§1) The 20E6_H0.2aL1_IgG1 antibody was biotinylated using EZ-Link SulfoNHS-LC-Biotin (ThermoFisher). A streptavidin-functionalized tip was equilibrated in binding buffer (10 mM sodium phosphate, 150 mM sodium chloride, 1% (w/v) bovine serum albumin, 0.05% (w/v) sodium azide, pH 7.4) and dipped in a 10 μg/mL solution of biotinylated anti-LAP in binding buffer for 30 seconds to load the tip with antibody. The antibody-loaded tip was then washed in binding buffer and placed in a solution containing 0-24 nM of a fusion protein having a human IgG1 Fc domain fused to either human LAP-TGFβ1, human LAP-TGFβ2 or human LAP-TGFβ3. The antigen was allowed to bind to antibody for 5 minutes (association phase), and then the tip was moved to binding buffer (dissociation phase). The association and dissociation phases were fit to a 2:1 heterogenous ligand binding model to determine the binding rate constants. As shown in FIG. 21A and Table 17, 20E6_H0.2aL1_IgG1 bound with sub-nanomolar affinity to human LAP-TGFβ1, but not to human LAP-TGFβ2 (FIG. 21B) or LAP-TGFβ3 (FIG. 21C).
(§2) The binding of 20E6_H0.2aL1_IgG1 antibody and 20E6_H0.2aL1_hIgG4mut antibody to LAP-TGFβ1 of various species was examined by bio-layer interferometry using the method described in Example 12, except that the antibody-loaded tip was placed in a solution containing 0-24 nM of a fusion protein having a human IgG1 Fc domain fused to either mouse, rat, cynomolgus monkey, or human LAP-TGFβ1.

[3] = target: T3, fusion protein of a human IgG1 Fc domain and mouse LAP-TGFβ1 (human; mouse, UniProt P04202 30-390); experiment: BLI, 2:1 model, component 1
T3 construct: also called mouse LAP-TGFβ-Fc
T3 sequence (P04202 30-390 limits assumed): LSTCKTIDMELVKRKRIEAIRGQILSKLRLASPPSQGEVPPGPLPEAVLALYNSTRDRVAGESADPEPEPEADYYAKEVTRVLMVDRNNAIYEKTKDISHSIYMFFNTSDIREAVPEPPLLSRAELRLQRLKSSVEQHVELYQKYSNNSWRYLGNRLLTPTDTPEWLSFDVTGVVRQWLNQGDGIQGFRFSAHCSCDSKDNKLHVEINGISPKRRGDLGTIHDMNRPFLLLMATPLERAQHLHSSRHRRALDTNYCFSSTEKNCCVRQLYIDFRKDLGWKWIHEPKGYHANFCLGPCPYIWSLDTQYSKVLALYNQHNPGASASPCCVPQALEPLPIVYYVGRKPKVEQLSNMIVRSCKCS
Procedure: as §1, §2

[4] = target: T4, fusion protein of a human IgG1 Fc domain and rat LAP-TGFβ1 (human; rat, UniProt P17246 30-390, limits assumed); experiment: BLI, 2:1 model, component 1
T4 construct: also called rat LAP-TGFβ-Fc
T4 sequence (P17246 30-390 limits assumed): as the sequence (P04202 30-390 limits assumed) above, with E93D, S99T, L131F, S134T, K202V counted along it
Procedure: as §1, §2

[5] = target: T5, fusion protein of a human IgG1 Fc domain and cynomolgus monkey LAP-TGFβ1 (human; cynomolgus monkey); experiment: BLI, 2:1 model, component 1
T5 construct: also called cynomolgus monkey LAP-TGFβ-Fc
Procedure: as §1, §2

[6] = target: T2, fusion protein of a human IgG1 Fc …; experiment: BLI, 2:1 model, component 2
Procedure: as §1, §2

[7] = target: T3, fusion protein of a human IgG1 Fc …; experiment: BLI, 2:1 model, component 2
Procedure: as §1, §2

[8] = target: T4, fusion protein of a human IgG1 Fc …; experiment: BLI, 2:1 model, component 2
Procedure: as §1, §2

[9] = target: T5, fusion protein of a human IgG1 Fc …; experiment: BLI, 2:1 model, component 2
Procedure: as §1, §2

[10] = target: T1, human LAP-TGFβ1 overexpressed on cells; experiment: flow cytometry; black bar HT1080-huB1, grey bar HT1080; remark: listed apart in the source
[11] = target: T1, human LAP-TGFβ1 overexpressed on cells; experiment: flow cytometry; black bar HT1080-huB1, grey bar HT1080-null

T1 sequence (P01137 30-390): as the sequence (P01137 30-390 limits assumed) above

B1: H0L0 (antibody, human IgG1, kappa, V domains shown)
VH: QVQLVQSGAEVKKPGASVKVSCKASGYTFTSYWMHWVRQAPGQGLEWMGRIDPNSGGIKYNEKFKSRVTMTRDTSISTAYMELSRLRSDDTAVYYCARWDYGGYFDVWGQGTLVTVSS
VL: DIQMTQSPSSLSASVGDRVTITCRASQDITNYLNWYQQKPGKAPKLLIYYTSRLHSGVPSRFSGSGSGTDFTLTISSLQPEDFATYYCQQGDTLPWTFGQGTKLEIKR
notes: also called 20E6_H0L0
binding result [1]: no binding (tested: single dose, 50 µL of 100 ng/µL)

B2: H3L0 (antibody, human IgG1, kappa, V domains shown)
VH: QVQLVQSGAEVKKPGASVKVSCKASGYTFTSYWMHWVKQRPGQGLEWIGRIDPNSGGIKYNEKFKSKATLTVDKSSSTAYMELSRLRSDDTAVYYCARWDYGGYFDVWGQGTLVTVSS
VL: DIQMTQSPSSLSASVGDRVTITCRASQDITNYLNWYQQKPGKAPKLLIYYTSRLHSGVPSRFSGSGSGTDFTLTISSLQPEDFATYYCQQGDTLPWTFGQGTKLEIKR
notes: also called 20E6_H3L0
binding result [1]: no binding (tested: single dose, 50 µL of 100 ng/µL)

B3: H1L0 (antibody, human IgG1, kappa, V domains shown)
VH: QVQLVQSGAEVKKPGASVKVSCKASGYTFTSYWMHWVRQAPGQGLEWIGRIDPNSGGIKYNEKFKSRVTLTVDTSISTAYMELSRLRSDDTAVYYCARWDYGGYFDVWGQGTLVTVSS
VL: DIQMTQSPSSLSASVGDRVTITCRASQDITNYLNWYQQKPGKAPKLLIYYTSRLHSGVPSRFSGSGSGTDFTLTISSLQPEDFATYYCQQGDTLPWTFGQGTKLEIKR
notes: also called 20E6_H1L0
binding result [1]: no binding (tested: single dose, 50 µL of 100 ng/µL)

B4: H2L0 (antibody, human IgG1, kappa, V domains shown)
VH: QVQLVQSGAEVKKPGASVKVSCKASGYTFTSYWMHWVRQAPGQGLEWIGRIDPNSGGIKYNEKFKSRVTLTVDKSSSTAYMELSRLRSDDTAVYYCARWDYGGYFDVWGQGTLVTVSS
VL: DIQMTQSPSSLSASVGDRVTITCRASQDITNYLNWYQQKPGKAPKLLIYYTSRLHSGVPSRFSGSGSGTDFTLTISSLQPEDFATYYCQQGDTLPWTFGQGTKLEIKR
notes: also called 20E6_H2L0
binding result [1]: no binding (tested: single dose, 50 µL of 100 ng/µL)

Kd [2]: 10.7 nM
koff [2]: 0.0303 s⁻¹
kon [2]: 2.8e+06 M⁻¹ s⁻¹
Kd [3]: 16.9 nM
koff [3]: 0.0478 s⁻¹
kon [3]: 2.8e+06 M⁻¹ s⁻¹
Kd [4]: 11.1 nM
koff [4]: 0.0406 s⁻¹
kon [4]: 3.6e+06 M⁻¹ s⁻¹
Kd [5]: 26.1 nM
koff [5]: 0.0524 s⁻¹
kon [5]: 2e+06 M⁻¹ s⁻¹
Kd [6]: 0.51 nM
koff [6]: 0.00036 s⁻¹
kon [6]: 700000 M⁻¹ s⁻¹
Kd [7]: 1.31 nM
koff [7]: 0.0011 s⁻¹
kon [7]: 840000 M⁻¹ s⁻¹
Kd [8]: 0.51 nM
koff [8]: 0.00087 s⁻¹
kon [8]: 1.7e+06 M⁻¹ s⁻¹
Kd [9]: 1.53 nM
koff [9]: 0.00143 s⁻¹
kon [9]: 940000 M⁻¹ s⁻¹
B5: 20E6_H0.2aL1_hIgG4mut (antibody)
heavy: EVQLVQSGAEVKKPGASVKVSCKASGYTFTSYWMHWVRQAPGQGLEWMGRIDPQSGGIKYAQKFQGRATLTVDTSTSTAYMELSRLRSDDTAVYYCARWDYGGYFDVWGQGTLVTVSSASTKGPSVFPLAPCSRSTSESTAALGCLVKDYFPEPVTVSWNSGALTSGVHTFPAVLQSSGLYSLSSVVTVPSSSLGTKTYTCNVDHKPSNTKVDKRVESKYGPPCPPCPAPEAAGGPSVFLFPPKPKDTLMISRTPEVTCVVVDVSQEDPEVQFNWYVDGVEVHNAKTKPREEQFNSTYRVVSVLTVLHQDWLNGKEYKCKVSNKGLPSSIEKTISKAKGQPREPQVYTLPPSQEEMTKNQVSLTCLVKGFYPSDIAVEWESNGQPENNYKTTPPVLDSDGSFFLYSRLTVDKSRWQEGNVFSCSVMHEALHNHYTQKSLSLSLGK
light: DIQMTQSPSSLSASVGDRVTITCRASQDITNYLNWYQQKPGKAVKLLIYYTSRLHSGVPSRFSGSGSGTDYTLTISSLQPEDFATYFCQQGDTLPWTFGQGTKLEIKRTVAAPSVFIFPPSDEQLKSGTASVVCLLNNFYPREAKVQWKVDNALQSGNSQESVTEQDSKDSTYSLSSTLTLSKADYEKHKVYACEVTHQGLSSPVTKSFNRGEC

binding result [10]: binds
B6: 22F9_D102A (antibody, human IgG1, kappa, V domains shown)
VH: QVQLVQPGAEVVKPGASVKLSCKASGYTFTSYWMHWVKQRPGQGLEWIGMIHPNSGSTNYNEKFKSKATLTVDKSSSTAYMELSSLRSEDTAVYYCAYYDYAGFFDVWGQGTLVTVSS
VL: DIQLTQSPSSLSASVGDRVTITCRASKSVSTSGYSYMHWYQQKPGKAPKLLIYLASNLESGVPSRFSGSGSGTDFTLTISSLQPEDFATYYCQHSRELPYTFGGGTKVEIKR
notes: also called 22F9_H5L0 with VH D102A

binding result [11]: binds
B7: 22F9_H2.1 variant (antibody, human IgG1, kappa, V domains shown)
VH: QVQLVQPGAEVVKPGASVKLSCKASGYTFTSYWMHWVKQRPGQGLEWIGMIHPQSGSTNYNEKFKSKATLTVDKSTSTAYMELSSLRSEDTAVYYCAYYDYAGFFDVWGQGTLVTVSS
VL: DIQLTQSPSSLSASVGDRVTITCRASKSVSTSGYSYMHWYQQKPGKAPKLLIYLASNLESGVPSRFSGSGSGTDFTLTISSLQPEDFATYYCQHSRELPYTFGGGTKVEIKR

binding result [10]: binds
B8: 22F9_H5.2L0 (antibody, human IgG1, kappa, V domains shown)
VH: QVQLVQPGAEVVKPGASVKLSCKASGYTFTSYWMHWVKQRPGQGLEWIGMIHPQSGSTNYNEKFKSKATLTVDKSSSTAYMELSSLRSEDTAVYYCAYYDYAGFFDVWGQGTLVTVSS
VL: DIQLTQSPSSLSASVGDRVTITCRASKSVSTSGYSYMHWYQQKPGKAPKLLIYLASNLESGVPSRFSGSGSGTDFTLTISSLQPEDFATYYCQHSRELPYTFGGGTKVEIKR
notes: also called 22F9_H5L0 with the double N54Q/D102A mutation

binding result [11]: binds
B9: 22F9_H3.1 variant (antibody, human IgG1, kappa, V domains shown)
VH: QVQLVQPGAEVVKPGASVKLSCKASGYTFTSYWMHWVRQAPGQGLEWIGMIHPQSGSTNYNEKFKSRVTLTVDKSSSTAYMELSSLRSEDTAVYYCAYYDYAGFFDVWGQGTLVTVSS
VL: DIQLTQSPSSLSASVGDRVTITCRASKSVSTSGYSYMHWYQQKPGKAPKLLIYLASNLESGVPSRFSGSGSGTDFTLTISSLQPEDFATYYCQHSRELPYTFGGGTKVEIKR

binding result [10]: binds
B10: 22F9_N54Q (antibody, human IgG1, kappa, V domains shown)
VH: QVQLVQPGAEVVKPGASVKLSCKASGYTFTSYWMHWVKQRPGQGLEWIGMIHPQSGSTNYNEKFKSKATLTVDKSSSTAYMELSSLRSEDTAVYYCAYYDYDGFFDVWGQGTLVTVSS
VL: DIQLTQSPSSLSASVGDRVTITCRASKSVSTSGYSYMHWYQQKPGKAPKLLIYLASNLESGVPSRFSGSGSGTDFTLTISSLQPEDFATYYCQHSRELPYTFGGGTKVEIKR
notes: also called 22F9_H5L0 with VH N54Q

binding result [11]: binds
B11: 22F9_H1.1 variant (antibody, human IgG1, kappa, V domains shown)
VH: QVQLVQPGAEVVKPGASVKLSCKASGYTFTSYWMHWVKQRPGQGLEWIGMIHPQSGSTNYNEKFKSKATMTVDKSSSTVYMELSSLRSEDTAVYYCAYYDYAGFFDVWGQGTLVTVSS
VL: DIQLTQSPSSLSASVGDRVTITCRASKSVSTSGYSYMHWYQQKPGKAPKLLIYLASNLESGVPSRFSGSGSGTDFTLTISSLQPEDFATYYCQHSRELPYTFGGGTKVEIKR
